Measured values as given in publication PMC8372317, “Discovering protein–protein interaction stabilisers by native mass spectrometry†” (Chemical Science, 2021).
Non-standard residues stand in square brackets, D forms with d. pT = C[C@@H](OP(=O)(O)O)[C@H](N)C(=O)O

Molecular target: T1, 14-3-3σ (UniProt P31947 1-248, partial β-mercaptoethanol capping of Cys38 (+76 Da adduct))
T1 construct: 14-3-3σ (14-3-3 protein sigma); The His-tag is TEV protease cleavable; Observed predominantly as a dimer by native MS; also called recombinant 14-3-3σ; receptor (R)
T1 sequence (looked up): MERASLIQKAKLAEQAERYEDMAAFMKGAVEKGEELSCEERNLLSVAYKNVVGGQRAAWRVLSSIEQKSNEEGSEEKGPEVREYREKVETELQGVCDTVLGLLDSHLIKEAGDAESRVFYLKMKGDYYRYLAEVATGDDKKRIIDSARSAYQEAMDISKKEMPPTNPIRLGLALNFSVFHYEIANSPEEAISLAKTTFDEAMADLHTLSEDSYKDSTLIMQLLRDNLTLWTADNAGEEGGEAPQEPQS
Test: native MS; 14-3-3σ 5 μM (monomer) with 25 μM phosphopeptide, no ligand (R:P:L 1:5:0); 50 mM ammonium acetate pH 6.8, 0.25% DMSO
Details: both partners purified

stoichiometry N: 2 peptide per 14-3-3σ dimer
B1: ERα(581–595) phosphopeptide (peptide)
peptide: Ac-KYYITGEAEGFPA[pT]V-OH
notes: estrogen receptor ERα, C-terminal fragment, residues 581-595; also called C-terminal fragment of estrogen receptor ERα; source: synthetic peptide, bought: Synpeptide Ltd (>95% purity)
